The assay is described as follows: UDP luminescence plate assay of E. coli extracts, mutants of SEQ ID No: 1, 2 mM metribuzin. The class given is biochemical, Zea mays. The conditions noted are these: for RATIO of the metribuzin signal to the DMSO signal: 2 mM metribuzin vs DMSO control, same mutant; for SIGNAL: metribuzin signal of mutant divided by the signal of w/t bx9 / luminescence signal observed with 2 mM metribuzin: 2 mM metribuzin; for SIGNAL: metribuzin signal of mutant divided by the signal of w/t bx9: relative to bx9 w/t; for luminescence signal in the DMSO control: mutants of SEQ ID No: 1, DMSO in place of metribuzin (background UDP-glucose hydrolysis); for luminescence signal observed with 2 mM metribuzin: mutants of SEQ ID No: 1 in E. coli extracts, UDP luminescence. How it is done:
Optionally plate assays are stopped with brief heating to 95 C before returning to ice and addition of UDP-Glo detection reagent followed by incubation at lab temperature. […] In addition a UDP standard curve is run alongside each set of plate tests.
Assays were carried out on extracts of E. coli BL21 DE3 expressing the various C-terminally his-tagged library variants of SEQ ID NO:1 at the amino acid positions listed in Table 11 as described in Example 2 except, in this case, with 2 mM metribuzin in place of herbicide V.
Thus the ratio of the metribuzin to DMSO signal as well as the increase in signal relative to the w/t bx9 is used to help distinguish those mutations most likely to offer the highest activity to metribuzin. A follow up assay monitored by, for example, LC MS is one method to distinguish these cases more quantitatively.

B1: I81Y (protein)
chain: MASSRTGAGAGGRVVVFPFPFQGHFNPVMRLARALHARGLAITVFHSGALDPADYPADYRFVPVTVEADPKLLASEDIAAYVTTLNASCDAPFRARLSALLAAEGRDSVRCVFTDVSWNAVLTASSDLGVPALGMMTASAASLRDYMAYRTLIDKGYLPVKEERKEDPVPELPPYLVKDLLRVDTSDLEEFAELLARTVTAARRASGLIFNTFPLIETDTLAEIHKALSVPVFAVAPLNKLVPTATASLHGVVQADRGCLQWLDTQQPGSVLYVSFGSMAAMDPHEFVELAWGLADSKRPFVWVVRPNLIRGFESGALPDGVEDEVRGRGIVVAWAPQEEVLAHPAVGGFLTHNGWNSTVEAISEGVPMVCCPRHGDQFGNMRYVCDVWKVGTELVGEQLERGQVKAAIDRLFGTKEGEEIKERMKEFKIAAAKGIGIGVDVDETASPRTDLTDLVDLIKSF
modifications: Zea mays
Take B1: the “RATIO of the metribuzin signal to the DMSO signal” value (“RATIO of the metribuzin signal” below) is 1.12, the “SIGNAL: metribuzin signal of mutant divided by the signal of w/t bx9” value came to 0.90, the “luminescence signal in the DMSO control” value came out at 2.25E+05 and the “luminescence signal observed with 2 mM metribuzin” value (“luminescence signal observed” below) was found to be 2.53E+05.

B2: L143F (protein)
chain: MASSRTGAGAGGRVVVFPFPFQGHFNPVMRLARALHARGLAITVFHSGALDPADYPADYRFVPVTVEADPKLLASEDIAAIVTTLNASCDAPFRARLSALLAAEGRDSVRCVFTDVSWNAVLTASSDLGVPALGMMTASAASFRDYMAYRTLIDKGYLPVKEERKEDPVPELPPYLVKDLLRVDTSDLEEFAELLARTVTAARRASGLIFNTFPLIETDTLAEIHKALSVPVFAVAPLNKLVPTATASLHGVVQADRGCLQWLDTQQPGSVLYVSFGSMAAMDPHEFVELAWGLADSKRPFVWVVRPNLIRGFESGALPDGVEDEVRGRGIVVAWAPQEEVLAHPAVGGFLTHNGWNSTVEAISEGVPMVCCPRHGDQFGNMRYVCDVWKVGTELVGEQLERGQVKAAIDRLFGTKEGEEIKERMKEFKIAAAKGIGIGVDVDETASPRTDLTDLVDLIKSF
modifications: Zea mays
Turning to B2, the “RATIO of the metribuzin signal” value was determined as 1.09, the “SIGNAL: metribuzin signal of mutant divided by the signal of w/t bx9” value was found to be 1.23, the “luminescence signal in the DMSO control” value was determined as 3.18E+05 and the “luminescence signal observed” value worked out at 3.45E+05.

B3: L143W (protein)
chain: MASSRTGAGAGGRVVVFPFPFQGHFNPVMRLARALHARGLAITVFHSGALDPADYPADYRFVPVTVEADPKLLASEDIAAIVTTLNASCDAPFRARLSALLAAEGRDSVRCVFTDVSWNAVLTASSDLGVPALGMMTASAASWRDYMAYRTLIDKGYLPVKEERKEDPVPELPPYLVKDLLRVDTSDLEEFAELLARTVTAARRASGLIFNTFPLIETDTLAEIHKALSVPVFAVAPLNKLVPTATASLHGVVQADRGCLQWLDTQQPGSVLYVSFGSMAAMDPHEFVELAWGLADSKRPFVWVVRPNLIRGFESGALPDGVEDEVRGRGIVVAWAPQEEVLAHPAVGGFLTHNGWNSTVEAISEGVPMVCCPRHGDQFGNMRYVCDVWKVGTELVGEQLERGQVKAAIDRLFGTKEGEEIKERMKEFKIAAAKGIGIGVDVDETASPRTDLTDLVDLIKSF
modifications: Zea mays
Consider B3, for which the “RATIO of the metribuzin signal” value is 1.12, the “SIGNAL: metribuzin signal of mutant divided by the signal of w/t bx9” value came out at 0.97, the “luminescence signal in the DMSO control” value turned out to be 2.42E+05 and the “luminescence signal observed” value is 2.72E+05.

B4: I81L (protein)
chain: MASSRTGAGAGGRVVVFPFPFQGHFNPVMRLARALHARGLAITVFHSGALDPADYPADYRFVPVTVEADPKLLASEDIAALVTTLNASCDAPFRARLSALLAAEGRDSVRCVFTDVSWNAVLTASSDLGVPALGMMTASAASLRDYMAYRTLIDKGYLPVKEERKEDPVPELPPYLVKDLLRVDTSDLEEFAELLARTVTAARRASGLIFNTFPLIETDTLAEIHKALSVPVFAVAPLNKLVPTATASLHGVVQADRGCLQWLDTQQPGSVLYVSFGSMAAMDPHEFVELAWGLADSKRPFVWVVRPNLIRGFESGALPDGVEDEVRGRGIVVAWAPQEEVLAHPAVGGFLTHNGWNSTVEAISEGVPMVCCPRHGDQFGNMRYVCDVWKVGTELVGEQLERGQVKAAIDRLFGTKEGEEIKERMKEFKIAAAKGIGIGVDVDETASPRTDLTDLVDLIKSF
modifications: Zea mays
In the case of B4, the “RATIO of the metribuzin signal” value was 1.11, the “SIGNAL: metribuzin signal of mutant divided by the signal of w/t bx9” value is 0.67, the “luminescence signal in the DMSO control” value was found to be 1.68E+05 and the “luminescence signal observed” value came to 1.87E+05.

B5: M136F (protein)
chain: MASSRTGAGAGGRVVVFPFPFQGHFNPVMRLARALHARGLAITVFHSGALDPADYPADYRFVPVTVEADPKLLASEDIAAIVTTLNASCDAPFRARLSALLAAEGRDSVRCVFTDVSWNAVLTASSDLGVPALGMFTASAASLRDYMAYRTLIDKGYLPVKEERKEDPVPELPPYLVKDLLRVDTSDLEEFAELLARTVTAARRASGLIFNTFPLIETDTLAEIHKALSVPVFAVAPLNKLVPTATASLHGVVQADRGCLQWLDTQQPGSVLYVSFGSMAAMDPHEFVELAWGLADSKRPFVWVVRPNLIRGFESGALPDGVEDEVRGRGIVVAWAPQEEVLAHPAVGGFLTHNGWNSTVEAISEGVPMVCCPRHGDQFGNMRYVCDVWKVGTELVGEQLERGQVKAAIDRLFGTKEGEEIKERMKEFKIAAAKGIGIGVDVDETASPRTDLTDLVDLIKSF
modifications: Zea mays
With B5, the “RATIO of the metribuzin signal” value came to 1.00, the “SIGNAL: metribuzin signal of mutant divided by the signal of w/t bx9” value stood at 0.93, the “luminescence signal in the DMSO control” value is 2.57E+05 and the “luminescence signal observed” value was determined as 2.59E+05.

B6: S117I: bx9 SEQ ID NO:1 mutant (protein)
chain: MASSRTGAGAGGRVVVFPFPFQGHFNPVMRLARALHARGLAITVFHSGALDPADYPADYRFVPVTVEADPKLLASEDIAAIVTTLNASCDAPFRARLSALLAAEGRDSVRCVFTDVIWNAVLTASSDLGVPALGMMTASAASLRDYMAYRTLIDKGYLPVKEERKEDPVPELPPYLVKDLLRVDTSDLEEFAELLARTVTAARRASGLIFNTFPLIETDTLAEIHKALSVPVFAVAPLNKLVPTATASLHGVVQADRGCLQWLDTQQPGSVLYVSFGSMAAMDPHEFVELAWGLADSKRPFVWVVRPNLIRGFESGALPDGVEDEVRGRGIVVAWAPQEEVLAHPAVGGFLTHNGWNSTVEAISEGVPMVCCPRHGDQFGNMRYVCDVWKVGTELVGEQLERGQVKAAIDRLFGTKEGEEIKERMKEFKIAAAKGIGIGVDVDETASPRTDLTDLVDLIKSF
modifications: Zea mays
As for B6, the “SIGNAL: metribuzin signal of mutant divided by the signal of w/t bx9” value is 1.99, the “luminescence signal in the DMSO control” value was 5.14E+05 and the “luminescence signal observed” value turned out to be 5.56E+05.

B7: S117V: bx9 SEQ ID NO:1 mutant (protein)
chain: MASSRTGAGAGGRVVVFPFPFQGHFNPVMRLARALHARGLAITVFHSGALDPADYPADYRFVPVTVEADPKLLASEDIAAIVTTLNASCDAPFRARLSALLAAEGRDSVRCVFTDVVWNAVLTASSDLGVPALGMMTASAASLRDYMAYRTLIDKGYLPVKEERKEDPVPELPPYLVKDLLRVDTSDLEEFAELLARTVTAARRASGLIFNTFPLIETDTLAEIHKALSVPVFAVAPLNKLVPTATASLHGVVQADRGCLQWLDTQQPGSVLYVSFGSMAAMDPHEFVELAWGLADSKRPFVWVVRPNLIRGFESGALPDGVEDEVRGRGIVVAWAPQEEVLAHPAVGGFLTHNGWNSTVEAISEGVPMVCCPRHGDQFGNMRYVCDVWKVGTELVGEQLERGQVKAAIDRLFGTKEGEEIKERMKEFKIAAAKGIGIGVDVDETASPRTDLTDLVDLIKSF
modifications: Zea mays
As for B7, the “SIGNAL: metribuzin signal of mutant divided by the signal of w/t bx9” value is given as 1.18, the “luminescence signal in the DMSO control” value was determined as 3.38E+05 and the “luminescence signal observed” value was 3.30E+05.

Values taken from patent publication US20200270588A1, “GLUCOSYL TRANSFERASE POLYPEPTIDES AND METHODS OF USE” (Syngenta Participations AG, priority 2017, published 2020).
